Source: patent publication US20120100139A1 (APTEVO RESEARCH AND DEVELOPMENT, published 2012)

B1: FUN1-31 humanized FUN1 SMIP (Fc fusion)
chain: QVQLVESGGGLVKPGGSLRLSCAASGFTFSDYNMNWIRQAPGKGLEWVSNIDPYYGGTSYNQKFKGRFTISRDNAKNSLYLQMNSLRAEDTAVYYCARWDYRYDDGRAYYVMDFWGQGTTVTVSSGGGGSGGGGSGGGGSGGGGSDIVMTQSPDSLAVSLGERATINCKSSQSVLYSSNQKNYLAWYQQKPGQPPKLLIYWASTRESGVPDRFSGSGSGTDFTLTISSLQAEDVAVYYCHQYLYSWTFGQGTKLEIKRLEPKSSDKTHTCPPCPAPEAAGAPSVFLFPPKPKDTLMISRTPEVTCVVVDVSHEDPEVKFNWYVDGVEVHNAKTKPREEQYNSTYRVVSVLTVLHQDWLNGKAYACAVSNKALPAPIEKTISKAKGQPREPQVYTLPPSRDELTKNQVSLTCLVKGFYPSDIAVEWESNGQPENNYKTTPPVLDSDGSFFLYSKLTVDKSRWQQGNVFSCSVMHEALHNHYTQKSLSLSPG
B2: FUN1-12 humanized FUN1 SMIP (Fc fusion)
chain: EVQLVQSGAEVKKPGATVKISCKVSGYTFTDYNMNWVQQAPGKGLEWMGNIDPYYGGTSYNQKFKGRVTITADTSTDTAYMELSSLRSEDTAVYYCATWDYRYDDGRAYYVMDFWGQGTTVTVSSGGGGSGGGGSGGGGSGGGGSDIQMTQSPSSLSASVGDRVTITCKSSQSVLYSSNQKNYLAWYQQKPGKVPKLLIYWASTRESGVPSRFSGSGSGTDFTLTISSLQPEDVATYYCHQYLYSWTFGQGTKLEIKRLEPKSSDKTHTCPPCPAPEAAGAPSVFLFPPKPKDTLMISRTPEVTCVVVDVSHEDPEVKFNWYVDGVEVHNAKTKPREEQYNSTYRVVSVLTVLHQDWLNGKAYACAVSNKALPAPIEKTISKAKGQPREPQVYTLPPSRDELTKNQVSLTCLVKGFYPSDIAVEWESNGQPENNYKTTPPVLDSDGSFFLYSKLTVDKSRWQQGNVFSCSVMHEALHNHYTQKSLSLSPG
B3: FUN1-32 humanized FUN1 SMIP (Fc fusion)
chain: QVQLVESGGGLVKPGGSLRLSCAASGFTFSDYNMNWIRQAPGKGLEWVSNIDPYYGGTSYNQKFKGRFTISRDNAKNSLYLQMNSLRAEDTAVYYCARWDYRYDDGRAYYVMDFWGQGTTVTVSSGGGGSGGGGSGGGGSGGGGSDIQMTQSPSSLSASVGDRVTITCKSSQSVLYSSNQKNYLAWYQQKPGKVPKLLIYWASTRESGVPSRFSGSGSGTDFTLTISSLQPEDVATYYCHQYLYSWTFGQGTKLEIKRLEPKSSDKTHTCPPCPAPEAAGAPSVFLFPPKPKDTLMISRTPEVTCVVVDVSHEDPEVKFNWYVDGVEVHNAKTKPREEQYNSTYRVVSVLTVLHQDWLNGKAYACAVSNKALPAPIEKTISKAKGQPREPQVYTLPPSRDELTKNQVSLTCLVKGFYPSDIAVEWESNGQPENNYKTTPPVLDSDGSFFLYSKLTVDKSRWQQGNVFSCSVMHEALHNHYTQKSLSLSPG
notes: SMIP: scFv-hinge-Fc single chain

molecular target: T1, CD86 on cells (WIL2-S human B-lymphoblastoid cells; HuCD86-2A2 CHO cells expressing CD86) (human, UniProt P42081 24-329); test: flow cytometry, supernatants of transfected HEK293 cells on HuCD86-2A2 cells
T1 construct: whole, on cells; also called cell surface CD86
T1 sequence (looked up): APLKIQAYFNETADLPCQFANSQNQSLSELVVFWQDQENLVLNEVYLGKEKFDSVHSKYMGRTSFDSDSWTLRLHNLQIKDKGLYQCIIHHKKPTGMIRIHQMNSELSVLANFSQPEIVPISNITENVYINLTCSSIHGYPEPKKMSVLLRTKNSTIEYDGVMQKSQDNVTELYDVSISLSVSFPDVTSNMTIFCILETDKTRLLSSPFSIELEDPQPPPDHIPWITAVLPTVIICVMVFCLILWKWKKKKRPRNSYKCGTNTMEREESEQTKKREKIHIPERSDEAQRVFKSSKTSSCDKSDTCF
Experimental: Briefly, WIL2-S or HuCD86-2A2 cells were incubated with test molecules containing a CD86 antagonist at concentrations ranging from saturation to background levels. […] After the incubation, cells were washed and a fluorophore (R-phycoerythrin) tagged F(Ab′)₂ antibody specific for the Fc portion of the xceptor molecule, IL10R-Ig fusion protein, or anti-IL10 antibody. The tagged cells were then passed through a flow cytometer and data was analyzed by plotting median fluorescence intensity of each sample.
In another experiment, different versions of humanized FUN1 SMIPs were tested for CD86 binding. Supernatants of HEK293 cells transiently transfected with the six different versions of humanized FUN1 SMIPs were examined for CD86 binding using HuCD86-2A2 cells.

Binding result, no binding:
B1, B2, B3
